“Also recorded” adds a separate entry of the source.
Legend:
CLBL-1 cells [1] = assay: Immunofluorescence binding/internalization of C5 in CLBL-1 cells; assay type: cell-based, canine; details: 5 μM, 90 minutes at 37° C.
Method: FIG. 8. Binding and internalization characterization of C5 VL sdAb. C5 binding and internalization properties against CLBL-1 cells were evaluated by cytometry and immunofluorescence. A) For flow cytometry analysis, 1×10^6 of CLBL-1 cells were incubated with Live/Dead reagents for 30 minutes. Then, 3 μM of C5 were incubated with the cells for different timepoints at 37° C. After, cells were washed, fixed, permeabilized, and incubated for 30 min with anti-HA antibody, washed twice and incubated with anti-rat Alexa Fluor-488. […] B) By contrast, no binding of C5 was detected with Jurkat cells. C) To confirm the binding of C5 to the CLBL-1 verified by flow cytometry, we evaluated its distribution on the cells by immunofluorescence assay. […] Representative microphotographs with C5 (green) and DAPI stained-nuclei (blue) are shown.
1.5×10^5 of CLBL-1 cells were plated on ibidi μ-Slide 8 Well Glass Bottom (#80827, Ibidi, Germany) and incubated for 24 h at 37° C. in a humidified atmosphere of 5% CO2. Then, 5 μM of VL was added to the cells and incubated for 90 minutes at 37° C. […] In the Airyscan acquisition mode, ×1.80 zoom images were recorded at 1024×1024 resolution. […]

Human Topoisomerase I = molecular target: T1, Human Topoisomerase I (Homo sapiens, UniProt P11387); assay: DNA Topo I activity assay (Human Topoisomerase I Assay Kit); assay type: biochemical; details: 10 U Topo I, supercoiled DNA, agarose gel
T1 construct: purchased Topogen
T1 sequence (P11387 1-765): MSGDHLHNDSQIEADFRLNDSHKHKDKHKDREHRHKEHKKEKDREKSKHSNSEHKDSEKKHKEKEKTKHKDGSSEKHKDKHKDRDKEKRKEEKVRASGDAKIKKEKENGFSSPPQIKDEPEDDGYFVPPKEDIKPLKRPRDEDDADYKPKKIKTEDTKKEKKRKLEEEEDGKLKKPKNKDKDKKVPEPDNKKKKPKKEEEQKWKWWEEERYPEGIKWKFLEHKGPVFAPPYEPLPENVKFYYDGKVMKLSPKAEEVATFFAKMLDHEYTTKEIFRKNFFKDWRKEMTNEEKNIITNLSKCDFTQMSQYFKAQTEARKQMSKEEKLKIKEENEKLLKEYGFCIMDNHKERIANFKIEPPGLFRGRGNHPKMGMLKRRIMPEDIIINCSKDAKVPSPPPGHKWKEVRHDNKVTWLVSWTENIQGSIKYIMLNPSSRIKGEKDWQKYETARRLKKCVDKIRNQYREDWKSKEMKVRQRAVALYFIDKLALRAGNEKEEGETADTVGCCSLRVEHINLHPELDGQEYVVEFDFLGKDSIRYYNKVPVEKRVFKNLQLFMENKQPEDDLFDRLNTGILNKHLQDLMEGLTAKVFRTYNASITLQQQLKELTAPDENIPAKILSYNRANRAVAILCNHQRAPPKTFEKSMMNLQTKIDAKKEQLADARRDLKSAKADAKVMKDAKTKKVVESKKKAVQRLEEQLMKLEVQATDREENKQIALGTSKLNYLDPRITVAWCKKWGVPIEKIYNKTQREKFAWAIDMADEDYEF
Method: FIG. 11—Cytotoxic effects of C5-DAB-SN-38. To determine the effect of C5-DAB-SN-38 on CLBL-1 and Jurkat cells, a cell viability assay was performed using the WST-1 reagent. 6×10^4 cells were seeded and treated with increasing amounts of compound. After 48 h treatment, cell viability was assessed. […] B) On the other hand, ADC had no effect on Jurkat cells, proving the specificity of the ADC. C5 was used as control. Best-fit EC50 values of each formulation were calculated using GraphPad Prism software (version 9.2.0, San Diego, CA, USA) using the log (inhibitor) vs response (variable slope) function. D) Effects of C5-DAB-SN-38 on DNA TopoI activity. To evaluate the effects of C5-DAB-SN-38 on DNA Topo I, we evaluated its activity using the Human Topoisomerase I Assay Kit. After incubation of C5-DAB-SN-38 with 1× reaction buffer and 10 U of Topo I for 1 h at 37° C., the supercoiled DNA was added. To stop the reaction, stop loading buffer was added. DNA TopoI activity was visualized by 1% agarose gel electrophoresis […] with ethidium bromide. Relaxed DNA indicated TopoI activity while supercoiled DNA indicated an inhibition. […] Relaxed DNA and supercoiled DNA were used as positive/negative controls. C5 and SN-38 were also used as controls.
Topo I activity on VL-DAB-SN38 was determined using the Human Topoisomerase I Assay Kit (Topogen, CO, USA) according to the manufacturer's instructions. […]

CLBL-1 cells [2] = assay: WST-1 cell viability assay on CLBL-1 cells; assay type: cell-based, canine; details: 48 h treatment
Method: FIG. 11—Cytotoxic effects of C5-DAB-SN-38. To determine the effect of C5-DAB-SN-38 on CLBL-1 and Jurkat cells, a cell viability assay was performed using the WST-1 reagent. 6×10^4 cells were seeded and treated with increasing amounts of compound. After 48 h treatment, cell viability was assessed. […] B) On the other hand, ADC had no effect on Jurkat cells, proving the specificity of the ADC. C5 was used as control. Best-fit EC50 values of each formulation were calculated using GraphPad Prism software (version 9.2.0, San Diego, CA, USA) using the log (inhibitor) vs response (variable slope) function. D) Effects of C5-DAB-SN-38 on DNA TopoI activity. To evaluate the effects of C5-DAB-SN-38 on DNA Topo I, we evaluated its activity using the Human Topoisomerase I Assay Kit. […]
To determine the effect of VL-DAB-SN-38 in CLBL-1 and Jurkat cell proliferation, a cell viability assay was performed using the Cell Proliferation Reagent WST-1 (Roche, Basel, Switzerland). […] After 48 h treatment, cell viability was assessed using WST-1, following the manufacturer's instructions. Absorbance at 450 nm was measured using the iMark microplate Reader (Bio-Rad). […] Best-fit EC50 values of each formulation were calculated using GraphPad Prism software (version 8.0, San Diego, CA, USA) using the log (inhibitor)) vs response (variable slope) function.

B1: C5: rabbit derived anti-cNHL VL sdAb clone, SEQ. ID. 3; ^99mTc radiolabelled for biodistribution (antibody, listed as Oryctolagus cuniculus, V domains shown)
VL: ELDLTQTPSPVSASVGGTATINCQASQSVYNNYWWAWYQQRPGHPPKLLIYETSKLASGVPSRFKGSGSGTQFTLTIIDVQCDDAATYVCAGGYGTVIDNAFGGGTELEIL
modifications: 99mTc(CO)3 radiolabel
notes: ID; ^99mTc radiolabelled for biodistribution
With B1 the “distribution/internalization in CLBL-1 cells (immunofluorescence)” value (CLBL-1 cells [1]) was “internalization into the cytoplasm; also recorded: high density of Alexa Fluor-488 labelled C5 labelled in the perinuclear region”, the “distribution/internalization in CLBL-1 cells (immunofluorescence)” value (CLBL-1 cells [1]; listed as VL C5) was “internalization into the cytoplasm” and the “effect on DNA Topo I activity” value (Human Topoisomerase I) was “not able to alter enzyme activity”. The “effect on CLBL-1 (cNHL) cell viability/proliferation” value (CLBL-1 cells [2]) was “does not affect cell proliferation”.
